Experimental data reported in US20250339569A1 (3B PHARMACEUTICALS, published 2025).
Each block holds one binder with its values, some of them ahead of it. Starred links: 1 amine or outer side, 2 acyl side, 3 side chain; linkers in the order of their positions; H or OH if unused. Positions of bridges follow the written chain, without caps; N, C: chain ends. Non-standard residues stand in square brackets, D forms with d. Primed or numbered codes have the meaning given here. No end group written: not given here. *: point of attachment. Af3(CMPy) = 3-amino-L-phenylalanine acylated on the ring amine with 5-cyano-1-methyl-1H-pyrazole-4-carboxylic acid, Cn1ncc(C(=O)Nc2cccc(C[C@H](N[*:1])C(=O)[*:2])c2)c1C#N; Af3(Hspy) = 3-amino-L-phenylalanine, ring amine acylated with 4-sulfamoyl-1H-pyrrole-2-carboxylic acid, NS(=O)(=O)c1c[nH]c(C(=O)Nc2cccc(C[C@H](N[*:1])C(=O)[*:2])c2)c1; Aph(4SaPy2Ac) = 4-amino-L-phenylalanine, ring amine acylated by (4-sulfamoyl-pyrazol-1-yl)-acetic acid, NS(=O)(=O)c1cnn(CC(=O)Nc2ccc(C[C@H](N[*:1])C(=O)[*:2])cc2)c1; Aph(6SaPyr3) = 4-amino-L-phenylalanine, ring amine acylated by 6-sulfamoylpyridine-3-carboxylic acid, NS(=O)(=O)c1ccc(C(=O)Nc2ccc(C[C@H](N[*:1])C(=O)[*:2])cc2)cn1; Aph(Hsfu) = 4-amino-L-phenylalanine, ring amine acylated with 4-sulfamoylfuran-2-carboxylic acid, NS(=O)(=O)c1coc(C(=O)Nc2ccc(C[C@H](N[*:1])C(=O)[*:2])cc2)c1; Aph(HO-Succinyl) = 4-aminophenylalanine acylated on the ring amine with succinic acid (free carboxyl), O=C(CCC(=O)[*:3])Nc1ccc(C[C@H](N[*:1])C(=O)[*:2])cc1; Af3(PrHydr) = 3-amino-L-phenylalanine, ring amine acylated by 4-(hydroxycarbamoyl)butanoic acid, O=C(CCCC(=O)Nc1cccc(C[C@H](N[*:1])C(=O)[*:2])c1)NO; Af3(DkpAc) = 3-amino-L-phenylalanine acylated on the ring amine with 2-(3,6-dioxopiperazin-2-yl)acetic acid; Ttds(4) = 1,13-diamino-4,7,10-trioxatridecan-succinamic acid spacer, O=C(CCC(=O)[*:2])NCCCOCCOCCOCCCN[*:1]; Af3(Btda) = 3-amino-L-phenylalanine, ring amine acylated by benzothiadiazine-7-carboxylic acid; Phe(3-NHCO(CH2)3SO2NH2) = N[C@@H](Cc1cccc(NC(=O)CCCS(N)(=O)=O)c1)C(=O)O; APAc″ = 2-(4-(amino)piperidin-1-yl)acetic acid, NC1CCN(CC(=O)*)CC1; DOTA = O=C(O)CN1CCN(CC(=O)O)CCN(CC(=O)*)CCN(CC(=O)O)CC1; Biotin = O=C1N[C@H]2[C@H](CS[C@H]2CCCCC(=O)*)N1; PPAc = 4-carboxymethyl piperazine linker; mXylylene = c1cc(C[*:1])cc(C[*:2])c1; APAc = not defined here; Dap = NC[C@H](N)C(=O)O; AEEA = NCCOCCOCC(=O)O

Tests used:
[1] = molecular target: T1, human carbonic anhydrase IX (CAIX) (human, UniProt Q16790 38-459); assay: FACS competition, HT-29 cells, tracer 3BP-4149; pIC50 category C: 6.1-7.0
Protocol: (§1) CAIX-expressing human HT-29 colorectal cancer cells (DSMZ, RRID: CVCL_0320) were cultured in McCoys's 5A modified medium (Biochrom, #F1015) including 10% fetal calf serum (FCS), 2 mM L-glutamine, 100 U/ml penicillin and 100 μg/mL streptomycin. Cells were detached with Accutase (Biolegend, #423201) and washed in FACS buffer (PBS including 1% FCS). Cells were diluted in FACS buffer to a final concentration of 500.000 cells per ml. 200 μL of the cell suspension were transferred to a u-shaped non-binding 96-well plate (Greiner) and cells were washed in ice-cold FACS buffer.
(§2) When biotinylated compounds were used an additional incubation step with 1 μg/mL APC-Streptavidin (Miltenyi; #130-106-791) in 50 μL FACS buffer for 30 minutes on ice was performed.
(§3) Cells were washed twice with ice-cold FACS buffer and analyzed in an Attune NxT flow cytometer (Thermo Fisher). Median fluorescence intensities (MFI) of the APC/Cy5-channel were calculated by Attune NxT software.

[2] = molecular target: T2, Fc-fusion protein of human carbonic anhydrase IX (human, UniProt Q16790 38-414); assay: SPR, captured hCAIX-Fc; t1/2 category D: <=2.0 min
Protocol: (§4) Stock solutions of test compounds were prepared by dissolving each compound in DMSO. DMSO stock solution were diluted 1:1000 in Running Buffer without DMSO. […] SPR binding analyses were performed in Single Cycle Kinetic (SCK) mode at 25° C.
(§5) For each test compound, SPR raw data in the form of resonance units (RU) were plotted as sensorgrams using the Biacore™ T200 control software. The signal from the blank sensorgram was subtracted from that of the test compound sensorgram (blank corrected). The blank corrected sensorgram was corrected for baseline drift by subtracting the sensorgram of a SCK run without the test compound (running buffer only). […] Raw data and fit results were imported as text files in IDBS. The pKD value (negative decadic logarithm of dissociation constant) was calculated in the IDBS excel template.

[3] = molecular target: T2, Fc-fusion protein of human carbonic …; assay: SPR, captured hCAIX-Fc; pKD category B: 7.1-8.0
Protocol: as §4, §5

[4] = molecular target: human carbonic anhydrase 9 (CAIX) (human, UniProt Q16790 38-459); assay: FACS competition on HT-29 cells, competitor tracer 3BP-4149; category A = pIC50 >8.0
Protocol: as §1, §2, §3

[5] = molecular target: T2, Fc-fusion protein of human carbonic …; assay: SPR, captured hCAIX-Fc; t1/2 category C: 2.1-5.0 min
[6] = molecular target: T1, human carbonic anhydrase IX (CAIX); assay: FACS competition, HT-29 cells, tracer 3BP-2776; pIC50 category B: 7.1-8.0
Protocol: as §1, §2, §3

[7] = molecular target: human carbonic anhydrase 9 (CAIX) (human, UniProt Q16790 38-459); assay: FACS binding assay on CAIX-expressing HT-29 cells, biotinylated compound detected with APC-streptavidin; pEC50 category (A = pEC50 >8.0)
Protocol: as §1, §2, §3

[8] = molecular target: T2, Fc-fusion protein of human carbonic …; assay: SPR, captured hCAIX-Fc; t1/2 category A: >15.0 min
[9] = molecular target: T2, Fc-fusion protein of human carbonic …; assay: SPR, captured hCAIX-Fc; pKD category A: >8.0

pIC50 [1]: 6.1 to 7 pic50
Binder: {DOTA-PPAc}-QCE[dP]D[Aph(4SaPy2Ac)]LTWSC-NH2 (linker 2-11 via mXylylene) [3BP-4482]

t1/2 (half-life of the complex, SPR) [2]: ≤ 2 min
pKD [3]: 7.1 to 8 pkd
Binder: {DOTA-APAc″}-VYCE[dP]D[Af3(CMPy)]LTWSC-NH2 (linker 3-12 via mXylylene) [3BP-4305]

pIC50 [1]: 6.1 to 7 pic50
Binder: {DOTA-APAc}-VYCE[dP]D[Af3(Btda)]LTWSC-NH2 (linker 3-12 via mXylylene; reading uncertain) [3BP-4415]

t1/2 (half-life of the complex, SPR) [2]: ≤ 2 min
pKD [3]: 7.1 to 8 pkd
Binder: {DOTA-APAc″}-VYCE[dP]D[Aph(HO-Succinyl)]LTWSC-NH2 (linker 3-12 via mXylylene) [3BP-4356]

pIC50 [1]: 6.1 to 7 pic50
Binder: {DOTA-PPAc}-QCE[dP]D[Aph(6SaPyr3)]LTWSC-NH2 (linker 2-11 via mXylylene) [3BP-4481]

pIC50 [4]: > 8 pic50
B1: 3BP-4337 (peptide)
peptide: VDCE[dP]DWLTW[Dap]C-NH2
modifications: lactam 2-11; linker 3-12 via mXylylene; not fully specified (N-terminus); also: indium complexed by DOTA

t1/2 (half-life of the complex, SPR) [5]: 2.1 to 5 min
pIC50 [6]: 7.1 to 8 pic50
pKD [3]: 7.1 to 8 pkd
Binder: {DOTA-PPAc}-QCE[dP]D[Af3(Hspy)]LTWSC-NH2 (linker 2-11 via mXylylene) [3BP-4789]

pIC50 [4]: > 8 pic50
Binder: {DOTA-Gab}-DCE[dP]DWLTW[Dap]C-NH2 (lactam 10-1; linker 2-11 via mXylylene) [3BP-4263]

t1/2 (half-life of the complex, SPR) [5]: 2.1 to 5 min
pKD [3]: 7.1 to 8 pkd
B2: 3BP-3869 (peptide)
peptide: {DOTA-AEEA}-YCE[dP]DWLTWSC-NH2
modifications: linker 2-11 via mXylylene
SMILES: CC(C)C[C@@H]1NC(=O)[C@H](Cc2c[nH]c3ccccc23)NC(=O)[C@H](CC(=O)O)NC(=O)[C@H]2CCCN2C(=O)[C@H](CCC(=O)O)NC(=O)[C@@H](NC(=O)[C@H](Cc2ccc(O)cc2)NC(=O)COCCOCCNC(=O)CN2CCN(CC(=O)O)CCN(CC(=O)O)CCN(CC(=O)O)CC2)CSCc2cccc(c2)CSC[C@@H](C(N)=O)NC(=O)[C@H](CO)NC(=O)[C@H](Cc2c[nH]c3ccccc23)NC(=O)[C@H]([C@@H](C)O)NC1=O

pEC50 [7]: > 8 pec50
B3: 3BP-2778: H-Met-Arg-[Cys(3MeBn)-Glu-Ile-Trp-Val-Asp-Gly-Trp-Val-Asp-Cys]-Ttds-Lys(Bio)-NH2 (peptide)
peptide: H-MRCEIWVDGWVDC[Ttds(4)]K(Biotin)-NH2
modifications: linker 3-13 via mXylylene
SMILES: CC[C@H](C)[C@@H]1NC(=O)[C@H](CCC(=O)O)NC(=O)[C@@H](NC(=O)[C@H](CCCNC(=N)N)NC(=O)[C@@H](N)CCSC)CSCc2cccc(c2)CSC[C@@H](C(=O)NCCCOCCOCCOCCCNC(=O)CCC(=O)N[C@@H](CCCCNC(=O)CCCC[C@@H]2SC[C@@H]3NC(=O)N[C@@H]32)C(N)=O)NC(=O)[C@H](CC(=O)O)NC(=O)[C@H](C(C)C)NC(=O)[C@H](Cc2c[nH]c3ccccc23)NC(=O)CNC(=O)[C@H](CC(=O)O)NC(=O)[C@H](C(C)C)NC(=O)[C@H](Cc2c[nH]c3ccccc23)NC1=O
notes: Cyclic peptide, biotinylated

t1/2 (half-life of the complex, SPR) [5]: 2.1 to 5 min
pIC50 [6]: 7.1 to 8 pic50
pKD [3]: 7.1 to 8 pkd
Binder: {DOTA-PPAc}-QCE[dP]D[Aph(Hsfu)]LTWSC-NH2 (linker 2-11 via mXylylene) [3BP-4813]

t1/2 (half-life of the complex, SPR) [2]: ≤ 2 min
pKD [3]: 7.1 to 8 pkd
Binder: {DOTA-APAc″}-VYCE[dP]D[Af3(DkpAc)]LTWSC-NH2 (linker 3-12 via mXylylene) [3BP-4288]

t1/2 (half-life of the complex, SPR) [5]: 2.1 to 5 min
pIC50 [6]: 7.1 to 8 pic50
Binder: {DOTA-PPAc}-QCE[dP]D[Af3(PrHydr)]LTWSC-NH2 (linker 2-11 via mXylylene) [3BP-4515]

pIC50 [4]: > 8 pic50
B4: 3BP-4338 (peptide)
peptide: DCE[dP]DWLTW[Dap]C-NH2
modifications: lactam 1-10; linker 2-11 via mXylylene; not fully specified (N-terminus); also: indium complexed by DOTA

pIC50 [4]: > 8 pic50
B5: 3BP-4264 (peptide)
peptide: {DOTA}-VDCE[dP]DWLTW[Dap]C-NH2
modifications: lactam 2-11; linker 3-12 via mXylylene
SMILES: CC(C)C[C@@H]1NC(=O)[C@H](Cc2c[nH]c3ccccc23)NC(=O)[C@H](CC(=O)O)NC(=O)[C@H]2CCCN2C(=O)[C@H](CCC(=O)O)NC(=O)[C@@H]2CSCc3cccc(c3)CSC[C@@H](C(N)=O)NC(=O)[C@H](CNC(=O)C[C@H](NC(=O)[C@@H](NC(=O)CN3CCN(CC(=O)O)CCN(CC(=O)O)CCN(CC(=O)O)CC3)C(C)C)C(=O)N2)NC(=O)[C@H](Cc2c[nH]c3ccccc23)NC(=O)[C@H]([C@@H](C)O)NC1=O

pEC50 [7]: > 8 pec50
B6: 3BP-2776: H-Met-Val-Tyr-[Cys(3MeBn)-Glu-Gly-Asp-Trp-Leu-Thr-Trp-Gln-Cys]-Ttds-Lys(Bio)-NH2 (peptide)
peptide: H-MVYCEGDWLTWQC[Ttds(4)]K(Biotin)-NH2
modifications: linker 4-13 via mXylylene
SMILES: CSCC[C@H](N)C(=O)N[C@H](C(=O)N[C@@H](Cc1ccc(O)cc1)C(=O)N[C@H]1CSCc2cccc(c2)CSC[C@@H](C(=O)NCCCOCCOCCOCCCNC(=O)CCC(=O)N[C@@H](CCCCNC(=O)CCCC[C@@H]2SC[C@@H]3NC(=O)N[C@@H]32)C(N)=O)NC(=O)[C@H](CCC(N)=O)NC(=O)[C@H](Cc2c[nH]c3ccccc23)NC(=O)[C@H]([C@@H](C)O)NC(=O)[C@H](CC(C)C)NC(=O)[C@H](Cc2c[nH]c3ccccc23)NC(=O)[C@H](CC(=O)O)NC(=O)CNC(=O)[C@H](CCC(=O)O)NC1=O)C(C)C
notes: Cyclic peptide, biotinylated

pEC50 [7]: > 8 pec50
B7: 3BP-2777: H-Met-Val-Tyr-[Cys(3MeBn)-Glu-Gly-Ser-Trp-Leu-Gly-Trp-Ser-Cys]-Ttds-Lys(Bio)-NH2 (peptide)
peptide: H-MVYCEGSWLGWSC[Ttds(4)]K(Biotin)-NH2
modifications: linker 4-13 via mXylylene
SMILES: CSCC[C@H](N)C(=O)N[C@H](C(=O)N[C@@H](Cc1ccc(O)cc1)C(=O)N[C@H]1CSCc2cccc(c2)CSC[C@@H](C(=O)NCCCOCCOCCOCCCNC(=O)CCC(=O)N[C@@H](CCCCNC(=O)CCCC[C@@H]2SC[C@@H]3NC(=O)N[C@@H]32)C(N)=O)NC(=O)[C@H](CO)NC(=O)[C@H](Cc2c[nH]c3ccccc23)NC(=O)CNC(=O)[C@H](CC(C)C)NC(=O)[C@H](Cc2c[nH]c3ccccc23)NC(=O)[C@H](CO)NC(=O)CNC(=O)[C@H](CCC(=O)O)NC1=O)C(C)C
notes: Cyclic peptide, biotinylated

t1/2 (half-life of the complex, SPR) [8]: > 15 min
pIC50 [6]: 7.1 to 8 pic50
pKD [9]: > 8 pkd
Binder: {DOTA-PPAc}-DCE[dP]D[Phe(3-NHCO(CH2)3SO2NH2)]LTW[Dap]C-NH2 (lactam 1-10; linker 2-11 via mXylylene) [3BP-4497]
